From patent US8540999B2, “Allergenic proteins and peptides from Japanese cedar pollen” (Merck Patent GmbH, priority 1991, dated 2013)

Assays:
[1] = system: Secondary T cell cultures reactive with Cry j I protein antigen; test: In vitro T cell proliferation assay, secondary T cell cultures of 36 Cry j I-allergic subjects, percent T cell reactivity algorithm; format: cell-based, human; conditions: patient 1308; highest S.I. >= 2.0 recorded per peptide
Cry j I reactive T cells = test: T cell proliferation assay, Cry j I primed T cell lines (Example 6); format: cell-based, human
Procedure: Viable cells were purified by LSM centrifugation and cultured in complete medium supplemented with 5 units recombinant human IL-2/ml and 5 units recombinant human IL-4/ml for up to three weeks until the cells no longer responded to lymphokines and were considered “rested”. The ability of the T cells to proliferate to selected peptides, recombinant Cry j I (rCry j I), purified native Cry j I, or recombinant Amb aI.1 (rAmb aI.1) or a positive control, phyto-hemaglutinin (PHA) was then assessed. For assay, 2×10^4 rested cells were restimulated in the presence of 2×10^4 autologous Epstein-Barr virus (EBV)-transformed B cells (prepared as described below) (gamma-irradiated with 25,000 RADS) with 2-50 μg/ml of selected peptides, Cry j I, purified native Cry j I or rAmb a I.1 or PHA, in a volume of 200 μl complete medium in duplicate or triplicate wells in 96-well round bottom plates for 2-4 days. […] Each well then received 1 μCi tritiated thymidine for 16-20 hours. The counts incorporated were collected onto glass fiber filter mats and processed for liquid scintillation counting. […] The titrations were used to optimize the dose of peptides in T cell assays. The maximum response in a titration of each peptide is expressed as the stimulation index (S.I.). The S.I. is the counts per minute (CPM) incorporated by cells in response to peptide, divided by the CPM incorporated by cells in medium only.
The above procedure was followed with a number of other patients. […] The bars represent the positivity index. Above each bar is the percent of positive responses with an S.I. of at least two to the peptide or protein in the group of patients tested. In parenthesis above each bar are the mean stimulation indices for each peptide or protein for the group of patients tested.
Autologous EBV-transformed cell lines were y-irradiated with 25,000 Rad and used as antigen presenting cells in secondary proliferation assays and secondary bulk stimulations. These EBV-transformed cell lines were made by incubating 5×10^6 PBL with 1 ml of B-59/8 Marmoset cell line (ATCC CRL1612, American Type Culture Collection, Rockville, Md.) conditioned medium in the presence of 1 μg/ml phorbol 12-myristate 13-acetate (PMA) at 37° C. for 60 minutes in 12×75 mm polypropylene round-bottom Falcon snap cap tubes (Becton Dickinson Labware, Lincoln Park, N.J.). These cells were then diluted to 1.25×10^6 cells/ml in RPMI-1640 as described above except supplemented with 10% heat-inactivated fetal bovine serum and cultured in 200 μl aliquots in flat bottom culture plates until visible colonies were detected. They were then transferred to larger wells until the cell lines were established.

allergic patient IgE = test: Direct ELISA, IgE binding to rCry j I and Cry j I peptides (Example 8); parameters: species or system human
Procedure: The recombinant Cry j I protein (rCry j I), expressed in bacteria and then purified (as described in Example 5), has been examined for IgE reactivity. The first method applied to this examination was direct ELISA where wells were coated with the recombinant Cry j I and IgE binding was assayed on individual patients. FIG. 9 is the graphic representation of this direct ELISA.
To analyze IgE reactivity to selected Cry j I peptides a direct ELISA format was used. ELSIA wells were coated with 25 peptides derived from Cry j I and assayed for IgE binding. FIG. 15a and 15b are graphs of these binding results using PHP (15 patients) as the cedar pollen allergic IgE source. This pool of plasma was formulated for enrichment of IgE that could bind to denatured SPE (as determined by direct ELISA) and therefore increase the chance of reactivity toward the peptides.

human allergic IgE = test: Capture ELISA with MAb CBF2; format: binding; conditions: pooled human plasma (15 patients), FIG. 10a
Procedure: Another method of analysis that was applied to the examination of IgE reactivity to the recombinant Cry j I was a capture ELISA. This analysis relies on the use of a defined antibody, in this case CBF2 to bind the antigen and allow for the binding of antibodies to other epitope sites. The format of this capture ELISA is 1) wells are coated with MAb CBF2, 2) antigen or PBS (as one type of negative control) is added and captured by specific interaction with the coated MAb, 3) either the control antibody anti-Amb a I & II (FIG. 10b) or human allergic plasma (FIG. 10a) is added as the detecting antibody, and 4) detection of antibody binding is assayed. FIGS. 10a and 10b are the graphed results of these assays. For the IgE analysis, the pooled human plasma (PHP) (15 patients) was used.

human basophil = test: Histamine release assay; format: cell-based; conditions: one Japanese cedar pollen allergic patient, FIG. 11
Procedure: To determine whether a peptide which binds IgE results in the release of mediators, a histamine release assay can be performed using standard reagents and protocols obtained for example, from Amac, Inc. (Westbrook, Me.). Briefly, a buffered solution of a peptide to be tested is combined with an equal volume of whole heparinized blood from an allergic subject. After mixing and incubation, the cells are pelleted and the supernatants are processed an analyzed using a radioimmunoassay to determine the amount of histamine released.
A histamine release assay was performed on one Japanese cedar pollen allergic patient using Japanese cedar pollen SPE, purified native Cry j I and rCry j I as the added antigens. This assay is a measure of IgE reactivity through human basophil mediator release. […] Two possible explanations for this release by the rCry j I are: 1) specific reactivity with a very low proportion of the anti-Cry j I IgE capable of recognizing the recombinant form of Cry j I, or 2) non-specific release caused by low abundance of bacterial contaminants observed only at the highest antigen concentration. […] In addition, the data shown are from single data points at each protein concentration.

IgE = test: RAST, competition ELISA and Western blotting (data not shown); format: binding, human

Molecule	STIMULATION INDEX [1]	T cell line response (Cry j I reactive T cells; panel of twenty-five patients, FIG. 14)	IgE binding, direct ELISA (allergic patient IgE; PHP (15 patients), FIG. 15)	IgE reactivity, direct ELISA (allergic patient IgE; individual patients, FIG. 9)	percent of positive responses with an S.I. of at least two (Cry j I reactive T cells; 25 patients / T cell lines, FIG. 14)	T cell proliferative response (Cry j I reactive T cells; patient #999, FIG. 12)	specific binding of human allergic IgE, capture ELISA (human allergic IgE)	histamine release (human basophil)	specific IgE reactivity (IgE)
CJ1-30: Cry j I peptide, SEQ ID NO: 55 (CSNWVWQSTQDVFYNGAYFV; listed as Cryptomeria japonica)	0	responded							
rCry j I: recombinant Cry j I protein expressed in bacteria (E. coli) and purified (protein, left off: small tags and cut ends, recombinant Cry j I protein expressed in bacteria (E. coli) and purified) DNPIDSCWRGDSNWAQNRMKLADCAVGFGSSTMGGKGGDLYTVTNSDDDPVNPAPGTLRYGATRDRPLWIIFSGNMNIKLKMPMYIAGYKTFDGRGAQVYIGNGGPCVFIKRVSNVIIHGLYLYGCSTSVLGNVLINESFGVEPVHPQDGDALTLRTATNIWIDHNSFSNSSDGLVDVTLTSTGVTISNNLFFNHHKVMLLGHDDAYSDDKSMKVTVAFNQFGPNCGQRMPRARYGLVHVANNNYDPWTIYAIGGSSNPTILSEGNSFTAPNESYKKQVTIRIGCKTSSSCSNWVWQSTQDVFYNGAYFVSSGKYEGGNIYTKKEAFNVENGNATPQLTKNAGVLTCSLSKRC			does not bind	no IgE reactivity	68.0%	responds well	no indication of any specific binding	only point where there is any measurable histamine release with the Cry j I is at the highest concentration	no specific IgE reactivity
